Experimental data from the DeepSol protein solubility set.

Test: soluble on expression in E. coli; label from the status in PepcDB or PDB records

| Sequence | soluble on expression in E. coli |
| --- | --- |
| MQKPSIPKGMRDFSPVEMSRRNYIFDTIREVYELFGFNQIETPTMEMLSTLMGKYGEEGDRLLFKVLNSGDVLADFCAEELAEKNSLRFAAKACEKGLRYDLTVPFARYVVMHRNEINFPFKRYQIQPVWRADRPQKGRYREFYQCDGDVIGSDSLMNEVELIQIISEVFRRLGIRTRILLNNRKILSGIAEVVDEADRLTDITVAIDKLDKIGLDKVNDELRTKGFGEEAIERLRPFIEMKGDNREKLDRLKSALASSETGLKGIEELTYILDKVERVQLHSELMVDISLARGLSYYTGAILEVKALDAEMGSITGGGRYDNLTGIFGLEGMSGVGISFGADRIYDVMMQLDLFPAEKLTGTQLLFVNFSEEDADSLLPLIQKLREQGLRTELYPEPAKIKKQMSYANAANIPYVALVGENERAAGQVNLKNMLTGEQQMLPADAATIVAAIV | not soluble |
| MSLADAPDNLLGAYLRDRREKLDPAALGLPSTRRRTPGLRREEVAQRAHVSTAWYTWMEQGRGGAPSADVLDRLARALLLDDAEREHLFLLGVGHPPEVRYHASGGVTPRLQHVLDAMDASPAIVRTATWDVVAWNAAAAATLTDYATLPPAARNILRLIFVDPRVRDAQPNWDRVARFAVGAFRADIARGGATQAVQAFIDEMRATSAEFDALWRDHDIRSHDEGTKEIRHPHAGRITLEYSAFAVIGRADLSLVIFTPTTAADRASIRSLVAAREQARAAQAPAMEGHHHHHH | soluble |
| MSVSFMELGSADSAEAAANKVAHHVEQMMETSDFFDRLTQHGTTPVSGLGEKFYVKGAPEFVSTRRIPIPGELQMQMSNIHSEFSMGFFTQISRVWVVIDNNLYMWNYETNDDLAFFDSSDAAILKVSLVNIKPGVFEPEIQYGLVVGTISDICLYPVFDFVENGASSISIDSKRCFKIALDGATVNDISYTSNGRVFYTADDQLFEFVYEKQNGWFGSTNHKCRGVNQTASILGTLISLPFFGSSKEPLDQITIDKSRNIMYLLGRAGTVSVWDLGADGAACAKFLSVPISKIAHEAHILTQFGHDETSFHSITSIKALEASQSAALNLVATTAKGVRLYFSVSTGPQSTMAMFNNSGTPNERNRPQTSVRPQCLRVAHVRFAPGVTPASIYGDGPNGVSVVYADECTRL | not soluble |
| RSEMHEECSPDFTAQFHLAAEHTAHIFQHLPETEPDDFQTALDTLRGELDTLRTHSSGTQSHILLQQLQLIARQLEPYYRAYRQIPHRQPQNAA | not soluble |
| MGSDKIHHHHHHVVLDTDLASIQESRNLVQKAKEAQLHLAHFNEQQIDKILASIVAAVEENAEGLARMACQETEYGIVEHKIAKNLFAARDVYESTKHIKTIGTISEDPDRKVIRYAAPMGVLVGITPRTNPTSTIIHNALCAIKGANAIVFSPHPFAVQCGCATASLINEAAVKAGAPDGVCSCLSMTSLQASHELMHHPDVAAIIATGGPGLVKSAYSAGKPAFGVGSGNVPVFIERSADIKQAVNDIMVSKTFDNGMICASEQAILADQPIKDEVIKELQNQGAYFLSPEEVQKVGRVVIHANGSMNNALVGQSPAVIAQRAGISIPADTALLIAPMEGYGKDYPLSHEKLTTVLGFYVVQDWKEACHLSIELLKLGGIGHSCAIHSQNEQVIREFLAKPVFRIIVNTPSALGGIGQTTGIMPSLTLGCGTWGGSSISENLGPQHLINIKHLTYGLKKVAFHKVPATQGNVSPLLPPTKATSWDIKSDDIDDVVKQVLQQLKIG | not soluble |
| LGFFNRIEKTEKDKSQIDFGSIHGTGWLIDWKEVDKKDKKANKFTVYLATNLHVIQALKNREDHPPYNQFDINFVRTVDFRIGKYTDVKQFVAPS | not soluble |
| MGSDKIHHHHHHMSKDCTIQDVFHRFYSSFESTHSISPAQRKAAYHIMNCKTGAFGVNVSVCEDCGCISVHYNSCRDRCCPMCQEFPKEKWVDARREDILDAPYFHVVFTVPEELNPIIYSNQKFLYAALYHAASDTLSELAADSKYLGTDIGYICILHTWGSTMNFHPHIHAIVLGGGLDVKNHWKDNGKDFFLPIKVISKTFRGKYMAELKQLWENDRLEFHGSAAPYKNHYTFKELLNTCYAKEWIPYCKKPFDGAESVIRYLGKYTHRIAISNYRIKDMTESTVTFSAKDYKNQGLWKEITISGEEFIRRFLMHVPPKRFVRIRHYGLLSSRNKKKKITLCRNILGCKKYISKLKDMDAPAIIRLLYNKDICKCSSCGGKIIPLPTEQHFIKPKPHMLC | not soluble |
| MPVEHLDVLIVGAGLSGVGAAYHLMKHCPGKSFALLEGRAAMGGTWDLFRYPGIRSDSDMFTLGYNFKPWSDPKAIADGPSIRRYIEETARENGIDRKIRYRHRVLRADWDSANARWNLDVQRGDEPEPLRMTAQFLLMCTGYYRYEAGYTPEFVGREDFAGQVVHPQLWPEDLDYSGKKVVVIGSGATAVTLVPSLTDKAAHVTMLQRSPSYVITLPQKDAISNFLRRFLPETWIYRQARARNVAMQMVFFMLARTFPGLVRKALLKLASLQLGKRFDIRHFSPRYKPWDERVCAVPDGDLFKVLRKGKASVVTEHIDRFVERGIRLKTGEVLEADIIVTATGLDLVMFGGAELAVDGKPFLVNQSMGYRGIMLRDLPNLAAVVGYTNASWTLKADLSSEYFCRLINHMDATGMRQVTARDSTGDVREEPFLNLDSGYIQRAAERMPKQGDRMPWKLYQNYVLDLALLRYGKVEDGYLVFSSPAPQRQAGGAAVQALGLEHHHHHH | not soluble |
| MGSDKIHHHHHHMQVTEQMKLDLARDGAFVARGLFSPEGLKRMREAFDYGIEHPSPQHGYIFKGTPDEHFNDYGNIANRDVHIATIKALVLDEFVASLWDSQHVWFKGEEIFIKKGGKAGRSPWHQDNSYTPVSGPQMLNIWTCFERIPRKNALEVVRGSHLGIQYNGNSYTDPGKPTKPLWLNTDWPDLPDIEAERAKDPNSWDVLSWDLELGDALVFHSGALHGGAPVSADCPDRHTLVYRFFGDKLFYRPLPTGGCNYPYDISALNDPSLMPGEPFRAAWCTQLR | not soluble |
| MSLGSGTSTQHHFAFQNAERAFKAAALIQRWYRRYVARLEMRRRCTWSIFQSIEYAGQQDQVKLHDFFSYLMDHFIPSSHNDRDFLTRIFTEDRFAQDSEMKKCSDYESIEVPDSYTGPRLSFPLLPDHATALVEAFRLKQQLHARYVLNLLYETKKHLVQLPNINRVSTCYSEEITVCGDLHGQLDDLIFIFYKNGLPSPERSYVFNGDFVDRGKDSVEILMILFAFMLVYPKEFHLNRGNHEDHMVNLRYGFTKEVMNKYKVHGKEILRTLQDVFCWLPLATLIDEKVLILHGGVSDITDLELLDKIERSKIVSTMRSGTQEEWRQVVDILWSDPMAQEGCKANTIRGGGCYFGPDVTQQLLQKYNMQFLIRSHECKPEGYEFCHNRKVLTIFSASNYYEVGSNRGAYVKLGPALTPHIVQYQANKVTHTLTMRQREGHHHHHH | not soluble |
| MEKVMKCHRVEELLQLLEPEWHKDSELNLIQFLLKLAQEAGYQGALEDLTDDVLIYHLKMRNSAKDAVIPGLKKDYEDDFKTAILRARGIIK | not soluble |
| MTPPRMRISGENELVQALLEHGHVLVEASEAELIFDPTQLVRRGQIVAHLGHATLADLDAYSSGHAFVLTELMPQIYAVTASDELAGMVAELLISELGGRVVHVPESQRDRLTAGLACAGFIGQVRSEARNLLTEALGNAHHADEVVEQLTDAVAPPLNVAALERGYHAIDSVGTKRLYAQLARRSGEVFRNNDVELWAMNQEQNNT | not soluble |
| MQGFELEDLTLWLIRDAGEDQMWIDRWAISYPVVQMSEASAGQSIGEWQAGLQTAFERIRGKYVAVVAHGAGAAAFLAWLYQADILTRKKIANIILVPQRPDIFPDDAEHAFQRVRCPCRAALVVPEHGGVPHGWAQKQADLWNARLLVSPHSGSLNGMLGGWQWGMKLMQEMLLA | not soluble |
| MLVNGALSTTGSFGQTVKYLQPHYNLVLFDLPFSGQSRAHNPDEMIVSKEDEVQILLQLIDLYQVNYLLSVSWGGVSALLALAQCPASVEKAIISSFSPVLNEPMLDYIDKAQVYLAAREKRKIGSLLNDTVGKHLPRLFKLYNYKHLIGLAEHEYGQIDFHISQIRTLSASNYVERFSSIKIPVLFINGEKDEYTTVEDARMFSNYIAKSSFNVVPDTGHFLDLESKAAWHHSQKTALSFLGT | not soluble |
| MSLSDPKFIHLRIHSDFSMVDGLSKVPPLVKKVAAMGMPAMALTDFTNLCGLVKFYSTAHNCGVKPIIGADFTLQSEEFGDELTKLTLLAKNNVGYKNLTLLISKAYLRGHVQHQPVIDKAWLVEHAEGLIVLSGGKSGEVGRALLKGNQQQVERCIEFYQTHFADHFYLELIRTGRADEESYLHFALDVAEQYDLPVVATNEVVFITEGHHHHHH | not soluble |
| MGSDKIHHHHHHSPTQELNSAKIISTLTAHYGERAGLRAKAWFQVLSKAEHVDEQEKLKMVNQFFNLFRFVEDKTLWGDSNYWATPMEFIGVNGGDCEDFSIAKYFTLLQLGVSEDKLRITMVKATTMNQYHMVLAYYPTPSSIPLVLDNLDREIKPATQRNDLLPVYSFNGKQLWLNKEKGRGVLAGSSSRLKKWNDLKHRLGVDRLRQPKLKME | not soluble |
| MKLDIKKDLKNIAWHCTMCGGCCDSPSVSKKDVANIAGFLKIPFDEVVKKYLVNFDGMTGRLKTSKEKCIFLDENNKCKIYRVRPIICRLRPYSVQIKDQNLVLTYDGWFLENCKGLFMGDLDPDEEYYKHAETVLKYLGEEENTPEEFFEKAKKRLKKSKKLEHHHHHH | soluble |
| MTSAPMSNPSSTSSVVTAAMLAIGDELLSGRTKDKNIGHLADVLTMSGIDLKEVRIVADEEESIVEALNALRSRYDYVFTSGGIGPTHDDITADAISAAFGLPCEHDAEALRLLGDMYRVREMEFTEARKRMARMPKGAAHIANPVSVAPGFVIGNVYVMAGVPQVFQAMLDNVMPTLRTGAKVMSQAVRSPYGEGDIGTPLTAIQKAHPETSIGSYPKYDGQRFSTEIVVRARDAGLLKAATEAVAAMIEAIGQEKQLAASKGDATA | not soluble |
| MGSDKIHHHHHHLVSDNMVLQQATKVRLWGNATPNSSLKVRSSWDNTEYTAQVNDQGRWEIWVQTPSASFEKQQLTLKNGQDKIVLHDLLIGEVWFGSGQSNMEMPLRGFWHCPIEGGNHAIATSGKYKNSIRYATIQRVGALEPKDYPVGGEWKVCDPRNAPEFGATAYFFATLLTEVLNVPVGIINCSWGGSTVEGWLPKDILRNYSDIDLSLAGNDEKIHPMLQPMIMYNGMLKPASKYTVRGFLWYQGESNVGHPDYAKRLATMVEHWRGLWGQEELPFYLVEIAPYEYGEGDQAAYLREEQYKATRLIPNSGIVSTNDLVQDYEKRQIHPKEKQKIGERLCYMALNKTYGYTTIACEGPQYDHMEVDKDKIILFFKNAEDGFNRDNGIIGFEIAGKDMRFHKANATIDANKKTVIISAPDVKAPIAVRYGFRNFQIGNLQNVQGLPVLPFRTDK | not soluble |
| MHHHHHHSSGRENLYFQGPQDLMVTCTAPVNIAVIKYWGKRDEALILPINSSLSVTLHQDQLKTTTTVAISKDFTEDRIWLNGREEDVGQPRLQACLREIRRLARKRRSTEDGDTLPLSLSYKVHVASVNNFPTAAGLASSAAGYACLAYTLAQVYGVEGDLSEVARRGSGSACRSLYGGFVEWQMGEQADGKDSIARQIAPEWHWPQLRILILVVSADKKQTGSTVGMQTSVETSTLLKFRAESVVPERMKEMTRCIQEQDFQGFAQLTMKDSNQFHATCLDTFPPISYLNDTSRRIIQLVHRFNTHHGQTKVAYTFDAGPNAVIFTLEDTVAEFVAAVRHSFPPAANGDKFLKGLQVAPVLLSDELKAALVVEPSPGGVQYIIATQVGPGPQVLDDTHDHLLGQDGLPQRDL | soluble |
